B1: GpH7-A5/GpH7-B3 variant G237_06M/GpL16-k0 (heterodimerized antibody, He Ab) (antibody, human IgG1, kappa)
heavy 1: not shown
heavy 2: not shown
light: DIVMTQSPLSLPVTPGEPASISCQASESLVHSNRNTYLHWYLQKPGQSPQLLIYKVSNRFSGVPDRFSGSGSGTDFTLKISRVEAEDVGVYYCSQNTHVPPTFGQGTKVEIERTVAAPSVFIFPPSDEQLKSGTASVVCLLNNFYPREAKVQWKVDNALQSGNSQESVTEQDSKDSTYSLSSTLTLSKADYEKHKVYACEVTHQGLSSPVTKSFNRGEC
notes: Anti-glypican-3 IgG1; the alteration is in the GpH7-B3 chain only; also called G237M
B2: GpH7-A5/GpH7-B3 variant G237_16H/GpL16-k0 (heterodimerized antibody, He Ab) (antibody, human IgG1, kappa)
heavy 1: not shown
heavy 2: not shown
light: B1 light
notes: Anti-glypican-3 IgG1; the alteration is in the GpH7-B3 chain only; also called G237H
B3: GpH7-A5/GpH7-B3 variant L235_16H/GpL16-k0 (heterodimerized antibody, He Ab) (antibody, human IgG1, kappa)
heavy 1: not shown
heavy 2: not shown
light: B1 light
notes: Anti-glypican-3 IgG1; the alteration is in the GpH7-B3 chain only; also called L235H
B4: GpH7-A5/GpH7-B3 variant S267_08L/GpL16-k0 (heterodimerized antibody, He Ab) (antibody, human IgG1, kappa)
heavy 1: not shown
heavy 2: not shown
light: B1 light
notes: Anti-glypican-3 IgG1; the alteration is in the GpH7-B3 chain only; also called S267L
B5: GpH7-A5/GpH7-B3 variant S239_07I/GpL16-k0 (heterodimerized antibody, He Ab) (antibody, human IgG1, kappa)
heavy 1: not shown
heavy 2: not shown
light: B1 light
notes: Anti-glypican-3 IgG1; the alteration is in the GpH7-B3 chain only; also called S239I
B6: GpH7-A5/GpH7-B3 variant P238_06M/GpL16-k0 (heterodimerized antibody, He Ab) (antibody, human IgG1, kappa)
heavy 1: not shown
heavy 2: not shown
light: B1 light
notes: Anti-glypican-3 IgG1; the alteration is in the GpH7-B3 chain only; also called P238M
B7: GpH7-A5/GpH7-B3 variant P238_13S/GpL16-k0 (heterodimerized antibody, He Ab) (antibody, human IgG1, kappa)
heavy 1: not shown
heavy 2: not shown
light: B1 light
notes: Anti-glypican-3 IgG1; the alteration is in the GpH7-B3 chain only; also called P238S
B8: GpH7-A5/GpH7-B3 variant G237_19Q/GpL16-k0 (heterodimerized antibody, He Ab) (antibody, human IgG1, kappa)
heavy 1: not shown
heavy 2: not shown
light: B1 light
notes: Anti-glypican-3 IgG1; the alteration is in the GpH7-B3 chain only; also called G237Q
B9: GpH7-A5/GpH7-B3 variant L234_09D/GpL16-k0 (heterodimerized antibody, He Ab) (antibody, human IgG1, kappa)
heavy 1: not shown
heavy 2: not shown
light: B1 light
notes: Anti-glypican-3 IgG1; the alteration is in the GpH7-B3 chain only; also called L234D
B10: GpH7-A5/GpH7-B3 variant L235_04F/GpL16-k0 (heterodimerized antibody, He Ab) (antibody, human IgG1, kappa)
heavy 1: not shown
heavy 2: not shown
light: B1 light
notes: Anti-glypican-3 IgG1; the alteration is in the GpH7-B3 chain only; also called L235F
B11: GpH7-A5/GpH7-B3 variant S239_06M/GpL16-k0 (heterodimerized antibody, He Ab) (antibody, human IgG1, kappa)
heavy 1: not shown
heavy 2: not shown
light: B1 light
notes: Anti-glypican-3 IgG1; the alteration is in the GpH7-B3 chain only; also called S239M
B12: GpH7-A5/GpH7-B3 variant P238_01G/GpL16-k0 (heterodimerized antibody, He Ab) (antibody, human IgG1, kappa)
heavy 1: not shown
heavy 2: not shown
light: B1 light
notes: Anti-glypican-3 IgG1; the alteration is in the GpH7-B3 chain only; also called P238G
B13: GpH7-A5/GpH7-B3 variant S239_08L/GpL16-k0 (heterodimerized antibody, He Ab) (antibody, human IgG1, kappa)
heavy 1: not shown
heavy 2: not shown
light: B1 light
notes: Anti-glypican-3 IgG1; the alteration is in the GpH7-B3 chain only; also called S239L
B14: GpH7-A5/GpH7-B3 variant P238_14T/GpL16-k0 (heterodimerized antibody, He Ab) (antibody, human IgG1, kappa)
heavy 1: not shown
heavy 2: not shown
light: B1 light
notes: Anti-glypican-3 IgG1; the alteration is in the GpH7-B3 chain only; also called P238T
B15: GpH7-A5/GpH7-B3 variant G237_09D/GpL16-k0 (heterodimerized antibody, He Ab) (antibody, human IgG1, kappa)
heavy 1: not shown
heavy 2: not shown
light: B1 light
notes: Anti-glypican-3 IgG1; the alteration is in the GpH7-B3 chain only; also called G237D
B16: GpH7-A5/GpH7-B3 variant P238_09D/GpL16-k0 (heterodimerized antibody, He Ab) (antibody, human IgG1, kappa)
heavy 1: not shown
heavy 2: not shown
light: B1 light
notes: Anti-glypican-3 IgG1; the alteration is in the GpH7-B3 chain only; also called P238D
B17: GpH7-A5/GpH7-B3 variant P238_11K/GpL16-k0 (heterodimerized antibody, He Ab) (antibody, human IgG1, kappa)
heavy 1: not shown
heavy 2: not shown
light: B1 light
notes: Anti-glypican-3 IgG1; the alteration is in the GpH7-B3 chain only; also called P238K
B18: GpH7-A5/GpH7-B3 variant L235_15Y/GpL16-k0 (heterodimerized antibody, He Ab) (antibody, human IgG1, kappa)
heavy 1: not shown
heavy 2: not shown
light: B1 light
notes: Anti-glypican-3 IgG1; the alteration is in the GpH7-B3 chain only; also called L235Y
B19: GpH7-A5/GpH7-B3 variant G237_20W/GpL16-k0 (heterodimerized antibody, He Ab) (antibody, human IgG1, kappa)
heavy 1: not shown
heavy 2: not shown
light: B1 light
notes: Anti-glypican-3 IgG1; the alteration is in the GpH7-B3 chain only; also called G237W
B20: GpH7-A5/GpH7-B3 variant P238_15Y/GpL16-k0 (heterodimerized antibody, He Ab) (antibody, human IgG1, kappa)
heavy 1: not shown
heavy 2: not shown
light: B1 light
notes: Anti-glypican-3 IgG1; the alteration is in the GpH7-B3 chain only; also called P238Y
B21: GpH7-A5/GpH7-B3 variant P238_04F/GpL16-k0 (heterodimerized antibody, He Ab) (antibody, human IgG1, kappa)
heavy 1: not shown
heavy 2: not shown
light: B1 light
notes: Anti-glypican-3 IgG1; the alteration is in the GpH7-B3 chain only; also called P238F

What follows are binders tested against T1, FcγRIIIa extracellular domain with C-terminal His tag (human, UniProt P08637 17-208) (assay: SPR (Biacore), captured antibody, FcγR as analyte; relative to GpH7-A5/GpH7-B3/GpL16-k0 = 100).
T1 construct: extracellular domain; also called FcgRIIIa; 3a; not shown: His tag at the C terminus
T1 sequence (P08637 17-208): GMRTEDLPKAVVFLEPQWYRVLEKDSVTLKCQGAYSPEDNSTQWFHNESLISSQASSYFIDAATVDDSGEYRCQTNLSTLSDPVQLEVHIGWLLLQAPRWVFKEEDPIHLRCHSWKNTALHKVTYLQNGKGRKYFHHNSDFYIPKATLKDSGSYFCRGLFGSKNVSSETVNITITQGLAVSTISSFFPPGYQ
Method: (§1) Analysis of interaction between objective antibody and the FcγR was carried out using Biacore T100 (GE Healthcare). HBS-EP+ (GE Healthcare) was used as the running buffer, and the measurement temperature was set to 25° C. Chips produced by immobilizing the antigen peptide by the amine coupling method to a Series S Sencor Chip CM5 (GE Healthcare), or alternatively, chips produced by allowing preliminarily biotinylated antigen peptides to interact with and immobilize onto a Series S Sensor Chip SA (certified) (GE Healthcare) were used. Antibodies of interest were captured onto an antigen peptide-immobilized chip, and allowed to interact to each FcγR diluted with running buffer. To regenerate and repeatedly use the chip, the antibodies captured on the chip were washed off by reacting 10 mM glycine-HCl, pH 1.5.
(§2) The FcγR-binding activity of each antibody was assessed primarily using as an indicator the FcγR-binding activity and dissociation constant for FcγR.
In the case of B1, the “He/Con_3a (IIIa binding)” value is reported as 31.9 % of HeCon Ab. For B2, the “He/Con_3a (IIIa binding)” value was 17.2 % of HeCon Ab. With B3 the “He/Con_3a (IIIa binding)” value was 59.1 % of HeCon Ab. For B4, the “He/Con_3a (IIIa binding)” value was 19.5 % of HeCon Ab. For B5, the “He/Con_3a (IIIa binding)” value was 79.3 % of HeCon Ab. In the case of B6, the “He/Con_3a (IIIa binding)” value is reported as 30.5 % of HeCon Ab. With B7 the “He/Con_3a (IIIa binding)” value was 44.9 % of HeCon Ab. B8 was tested, and the “He/Con_3a (IIIa binding)” value was 43.3 % of HeCon Ab. For B9, the “He/Con_3a (IIIa binding)” value was 117 % of HeCon Ab. B10 was tested, and the “He/Con_3a (IIIa binding)” value was 79.1 % of HeCon Ab. In the case of B11, the “He/Con_3a (IIIa binding)” value is reported as 78.2 % of HeCon Ab. For B12, the “He/Con_3a (IIIa binding)” value was 33 % of HeCon Ab. With B13 the “He/Con_3a (IIIa binding)” value was 95.3 % of HeCon Ab. For B14, the “He/Con_3a (IIIa binding)” value was 28 % of HeCon Ab. In the case of B15, the “He/Con_3a (IIIa binding)” value is reported as 17.7 % of HeCon Ab. With B16 the “He/Con_3a (IIIa binding)” value was 106 % of HeCon Ab. B17 was tested, and the “He/Con_3a (IIIa binding)” value was 10.4 % of HeCon Ab. In the case of B18, the “He/Con_3a (IIIa binding)” value is reported as 80.6 % of HeCon Ab. With B19 the “He/Con_3a (IIIa binding)” value was 19.7 % of HeCon Ab. In the case of B20, the “He/Con_3a (IIIa binding)” value is reported as 64.5 % of HeCon Ab. In the case of B21, the “He/Con_3a (IIIa binding)” value is reported as 46.7 % of HeCon Ab.

The binders below were run against T2, FcγRIIb extracellular domain with C-terminal His tag (human, UniProt P31994 43-217) in the same assay as above.
T2 construct: extracellular domain; also called FcgRIIb; 2b; not shown: His tag at the C terminus
T2 sequence (looked up): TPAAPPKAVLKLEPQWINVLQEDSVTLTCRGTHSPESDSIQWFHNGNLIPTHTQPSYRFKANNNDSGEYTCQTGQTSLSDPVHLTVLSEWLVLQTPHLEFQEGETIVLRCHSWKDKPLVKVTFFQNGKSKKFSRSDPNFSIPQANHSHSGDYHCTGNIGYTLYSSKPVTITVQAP
Method: as §1, §2
In the case of B1, the “He/Con_2b (IIb binding)” value is reported as 130 % of HeCon Ab. For B2, the “He/Con_2b (IIb binding)” value was 55.2 % of HeCon Ab. With B3 the “He/Con_2b (IIb binding)” value was 76.9 % of HeCon Ab. With B4 the “He/Con_2b (IIb binding)” value was 109 % of HeCon Ab. With B5 the “He/Con_2b (IIb binding)” value was 107 % of HeCon Ab. B6 was tested, and the “He/Con_2b (IIb binding)” value was 174 % of HeCon Ab. B7 was tested, and the “He/Con_2b (IIb binding)” value was 70.4 % of HeCon Ab. With B8 the “He/Con_2b (IIb binding)” value was 108 % of HeCon Ab. For B9, the “He/Con_2b (IIb binding)” value was 150 % of HeCon Ab. With B10 the “He/Con_2b (IIb binding)” value was 118 % of HeCon Ab. In the case of B11, the “He/Con_2b (IIb binding)” value is reported as 101 % of HeCon Ab. In the case of B12, the “He/Con_2b (IIb binding)” value is reported as 56 % of HeCon Ab. In the case of B13, the “He/Con_2b (IIb binding)” value is reported as 140 % of HeCon Ab. For B14, the “He/Con_2b (IIb binding)” value was 50.7 % of HeCon Ab. In the case of B15, the “He/Con_2b (IIb binding)” value is reported as 223 % of HeCon Ab. For B16, the “He/Con_2b (IIb binding)” value was 221 % of HeCon Ab. For B17, the “He/Con_2b (IIb binding)” value was 18.1 % of HeCon Ab. In the case of B18, the “He/Con_2b (IIb binding)” value is reported as 149 % of HeCon Ab. With B19 the “He/Con_2b (IIb binding)” value was 193 % of HeCon Ab. B20 was tested, and the “He/Con_2b (IIb binding)” value was 218 % of HeCon Ab. In the case of B21, the “He/Con_2b (IIb binding)” value is reported as 312 % of HeCon Ab.

— patent US20180155451A1 (published 2018)
